Key:
[1] = test system: H157 cells; test: G1/S ratio by flow cytometry, PHLPP2 expression; format: cell-based; conditions: high serum (10% FBS), 48 hrs
Procedure: (§1) Apoptotic assays were performed as described above. To determine G1/S ratios, cells were co-transfected with GFP and HA-PHLPP2 and incubated under high serum (10% FBS) conditions for 48 hrs and cells were gated based on GFP expression as described above. For BrdU incorporation assays, cells were transfected with 100 nM siRNA (si-1) and incubated for 48 hrs prior to performing assay following manufacturers protocol (Oncogene Research Products).

[2] = test system: 293T cells; test: G1/S ratio by flow cytometry, PHLPP2 expression; format: cell-based; conditions: high serum (10% FBS), 48 hrs
Procedure: as §1

[3] = test system: Akt; test: in vitro kinase assay of Akt immunoprecipitated from 293T cells overexpressing PHLPP2; format: cell-based
Procedure: H157 cells transfected with vector or HA-PHLPP were lysed in buffer A. The detergent-solubilized cell lysates were incubated with an anti-Akt monoclonal antibody (5G3) and Ultra-link protein A/G beads (Pierce) at 4° C. overnight. Beads were washed three times in buffer A and twice in buffer B (25 mM Tris, pH 7.4, 10 mM MgCl2 and 1 mM DTT). In vitro kinase assays were carried out by incubating immunoprecipitated Akt in buffer containing 25 mM Tris, pH 7.4, 10 mM MgCl2 and 1 mM DTT, 200 μM ATP, 6 μM Crosstide (Upstate Biotechnology) and ^32Pγ-ATP at 30° C. for 30 minutes. Each reaction was performed in duplicate. The reactions were spotted onto P81 filter paper (Whatman), and radioactivity incorporated into the peptide was measured using a scintillation counter.
Akt was immunoprecipitated from cell lysates using Akt agarose (Upstate Biotechnologies) and kinase reactions were performed using an Akt kinase assay kit (Cell Signaling) as described previously in Example 5.

[4] = test system: MEK 1/2 or ERK 1/2; test: MAPK signaling pathway on PHLPP2 expression (Western blot); format: cell-based; conditions: untreated cells
Procedure: (§2) ZR-75-1 cell lines were maintained in RPMI 1640 (Cellgro), and all other cell lines were maintained in DMEM (Celigro); both media were supplemented with 10% FBS and 1% penicillin/streptomycin. Cells were maintained at 37° C. in 5% CO2. Transient transfections and siRNA experiments were performed as previously described (6), except for ZR-75-1 cells, which were transfected using FuGENE reagent (Roche). For immunoblotting, transfected cells were lysed in Buffer 1 (50 mM Na2HPO4, pH 7.5, 1 mM sodium pyrophosphate, 20 mM NaF, 2 mM EDTA, 2 mM EGTA, 1% SDS, 1 mM DTT, 200 mM benzamidine, […] leupeptin, and 1 mM PMSF) and sonicated for 5 seconds. Lysates containing equal protein were analyzed on SDS-PAGE gels, and individual blots were probed using each antibody. Densitometric analysis was performed with the NIH Image analysis software (version 1.63).

[5] = test system: PKC, p90RSK, or p70S6K; test: phosphorylation of the hydrophobic motif in other AGC family kinases on PHLPP2 expression (Western blot); format: cell-based; conditions: 293T and H157 cells
Procedure: as §2

[6] = molecular target: T1, Akt (Homo sapiens, UniProt P31749); test: dephosphorylation assay with immunoprecipitated full-length HA-PHLPP2 and pure Akt; format: biochemical
T1 construct: 6His; made in house; host or cells: Akt1: baculovirus-infected Sf21 cells; HA-PHLPP2: transfected 293T cells, immunoprecipitated with HA antibody
T1 sequence (P31749 whole entry): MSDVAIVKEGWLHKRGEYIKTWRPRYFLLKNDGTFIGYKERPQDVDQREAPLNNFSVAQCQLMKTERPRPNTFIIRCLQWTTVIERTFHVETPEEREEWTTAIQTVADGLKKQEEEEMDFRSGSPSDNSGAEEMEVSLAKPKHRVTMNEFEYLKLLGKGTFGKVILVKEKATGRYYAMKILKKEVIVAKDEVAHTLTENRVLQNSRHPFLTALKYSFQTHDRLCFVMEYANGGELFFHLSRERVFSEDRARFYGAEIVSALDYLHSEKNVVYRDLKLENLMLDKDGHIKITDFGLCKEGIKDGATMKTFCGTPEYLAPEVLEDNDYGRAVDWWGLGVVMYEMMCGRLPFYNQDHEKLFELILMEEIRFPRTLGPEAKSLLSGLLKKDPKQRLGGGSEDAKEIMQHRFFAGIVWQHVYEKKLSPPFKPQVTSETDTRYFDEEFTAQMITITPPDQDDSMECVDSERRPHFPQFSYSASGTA
Procedure: A GST-fusion protein of PHLPP-1α-PP2C was expressed in BL21 (DE3) and purified using glutathione-Sepharose. The GST-PP2C proteins were eluted from the beads in PBS containing 10 mM glutathione and 1 mM DTT, and dialyzed against 50 mM Tris (pH 7.4) and 1 mM DTT. His-tagged Akt was expressed and purified from baculovirus-infected Sf21 cells. Briefly, Sf21 cells were maintained in SF-900 II media (Invitrogen) and infected with baculovirus encoding His-Akt for 3 days. To obtain maximally phosphorylated Akt as substrate, the infected cells were treated with 10% FBS and calyculin A (100 nM) for 15 minutes prior to lysis. The infected cells were lysed in PBS containing 1% Triton X-100 and 10 mM imidazole, and His-Akt proteins were purified using Ni-NTA beads (Qiagen). The dephosphorylation reactions were carried out in a reaction buffer containing 50 mM Tris (pH 7.4), 1 mM DTT and 5 mM MnCl2 at 30° C. for 0-30 minutes.
GST-PP2C was expressed in BL21 bacterial cells; phosphatase assays were performed using the purified GST-PP2C construct conjugated to glutathione-sepharose and pure Akt as a substrate as described above. The activity of full length HA-PHLPP2 was assessed by expressing and immunoprecipitating PHLPP2 from 293T or H157 cell lysates. Cells were lysed in Buffer 2 (20 mM HEPES, pH 7.4, 1% Triton X-100, 1 mM DTT, 200 mM benzamidine, […] leupeptin, and 1 mM PMSF). […]

[7] = test system: Akt; test: Akt phosphorylation in cells overexpressing HA-PHLPP2 (Western blot); format: cell-based
Procedure: as §2

[8] = test system: H157 cells; test: apoptosis assay, sub-2N DNA by flow cytometry; format: cell-based; conditions: serum deprivation; vector-transfected cells 3.1±0.1%
Procedure: (§3) Apoptosis assays were performed as described previously (Brognard et al., 2001). Briefly, cells were transfected with different PHLPP expression constructs or siRNAs. In the case of gating for transfected cells, a GFP expression construct was co-transfected into the cells. Approximately 24 hours post-transfection, the cells were switched to low serum medium (DMEM plus 0.1% FBS) and allowed to grow for an additional 48 hours. For LY294002 (25 μM) treatment, the drug was added at the time when the cells were switched into the low serum medium. The cells were collected and stained with propidium iodide (25 μg/ml). Apoptotic cells were defined as sub-2N DNA containing cells. Quantification of apoptosis was obtained using flow cytometry analysis with a Becton Dickinson FACSort.
as §1

[9] = test system: Bt-474 cells; test: apoptosis assay, sub-2N DNA by flow cytometry; format: cell-based; conditions: from 2.0+0.2 without PHLPP2
Procedure: as §3, §1

[10] = test system: MDA-MB-231 cells; test: apoptosis assay, sub-2N DNA by flow cytometry; format: cell-based; conditions: from 2.9+0.9 without PHLPP2
Procedure: as §3, §1

B1: HA-PHLPP2: HA-tagged full length human PHLPP2 expressed from pcDNA3HA vector; PHLPP2 protein is SEQ ID NO: 4 (protein, listed as Homo sapiens)
chain: MKRNGSRNCLNRRSRFGSRERDWLREDVKRGCVYLYGADTTTATTTTTTSSSSSSSSSSSDLHLVLCTVETPASEICAGEGRESLYLQLHGDLVRRLEPTERPLQIVYDYLSRLGFDDPVRIQEEATNPDLGCMIRFYGEKPCHMDRLDRILLSGIYNVRKGKTQLHKWAERLVVLCGTCLIVSSVKDCQTGKMHILPLVGGKIEEVKRRQYSLAFSSAGAQAQTYHVSFETLAEYQRWQRQASKVVSQRISTVDLSCYSLEEVPEHLFYSQDITYLNLRHNFMQLERPGGLDTLYKFSQLKGLNLSHNKLGLFPILLCEISTLTELNLSCNGFHDLPSQIGNLLNLQTLCLDGNFLTTLPEELGNLQQLSSLGISFNNFSQIPEVYEKLTMLDRVVMAGNCLEVLNLGVLNRMNHIKHVDLRMNHLKTMVIENLEGNKHITHVDLRDNRLTDLDLSSLCSLEQLHCGRNQLRELTLSGFSLRTLYASSNRLTAVNVYPVPSLLTFLDLSRNLLECVPDWACEAKKIEVLDVSYNLLTEVPVRILSSLSLRKLMLGHNHVQNLPTLVEHIPLEVLDLQHNALTRLPDTLFSKALNLRYLNASANSLESLPSACTGEESLSMLQLLYLTNNLLTDQCIPVLVGHLHLRILHLANNQLQTFPASKLNKLEQLEELNLSGNKLKTIPTTIANCKRLHTLVAHSNNISIFPEILQLPQIQFVDLSCNDLTEILIPEALPATLQDLDLTGNTNLVLEHKTLDIFSHITTLKIDQKPLPTTDSTVTSTFWSHGLAEMAGQRNKLCVSALAMDSFAEGVGAVYGMFDGDRNEELPRLLQCTMADVLLEEVQQSTNDTVFMANTFLVSHRKLGMAGQKLGSSALLCYIRPDTADPASSFSLTVANVGTCQAVLCRGGKPVPLSKVFSLEQDPEEAQRVKDQKAIITEDNKVNGVTCCTRMLGCTYLYPWILPKPHISSTPLTIQDELLILGNKALWEHLSYTEAVNAVRHVQDPLAAAKKLCTLAQSYGCQDNVGAMVVYLNIGEEGCTCEMNGLTLPGPVGFASTTTIKDAPKPATPSSSSGIASEFSSEMSTSEVSSEVGSTASDEHNAGGLDTALLPRPERRCSLHPTPTSGLFQRQPSSATFSSNQSDNGLDSDDDQPVEGVITNGSKVEVEVDIHCCRGRDLENSPPLIESSPTLCSEEHARGSCFGIRRQNSVNSGMLLPMSKDRMELQKSPSTSCLYGKKLSNGSIVPLEDSLNLIEVATEVPKRKTGYFAAPTQMEPEDQFVVPHDLEEEVKEQMKQHQDSRLEPEPHEEDRTEPPEEFDTAL
modifications: HA tag
With B1 the “increase in the G1/S ratio” value [1] was “approximately 2 fold”, the “increase in the G1/S ratio” value [2] was “approximately 3 fold” and the “reduction in Ser 473 phosphorylation of immunoprecipitated Akt” value ([3]; 293T cells overexpressing PHLPP2, compared to vector-transfected cells) was 70%. The “reduction in substrate phosphorylation (GSK-3 fusion protein)” value ([3]; Akt from 293T cells overexpressing PHLPP2) was 80%, the “phosphorylation of MEK 1/2 or ERK 1/2” value [4] was “did not alter” and the “effect on the phosphorylation of the hydrophobic motif in PKC, p90RSK, or p70S6K” value [5] was “no significant effect”. The “dephosphorylation of Ser 473” value [6] was 60+4%, the “effect on Thr 308 phosphorylation” value [6] was “no significant effect” and the “decrease in phosphorylation at Ser 473” value ([7]; Bt-474 cell line) was “approximately 80%”. For the same molecule, the “decrease in phosphorylation at Ser 473” value ([7]; MDA-MB-231 cell line) was about 70%, the “effects on the phosphorylation of Thr 308” value ([7]; overexpression in 293T and H157 cells) was “minimal effects” and the “reduction in phosphorylation at Ser 473” value ([7]; overexpression in 293T cells) was 76±3%. For the same molecule, the “reduction in phosphorylation at Ser 473” value ([7]; overexpression in H157 cells) was 72+8%, the “relative sub-2N DNA (apoptosis)” value [8] was 28±5% and the “apoptosis (sub-2N-DNA content)” value [9] was 15.8+0.6 relative units. For the same molecule, the “apoptosis (sub-2N-DNA content)” value [10] was 11.5+3.6 relative units.

From US20080108569A1, “Compositions and Methods for Treating Diseases Associated With Phlpp” (The Regents of the University of California, priority 2005, published 2008)
